Data on one molecule can be found in PMC8938308 (Human genetics, 2021).

This assay addresses sodium/potassium-transporting ATPase ATP1A3, F309S mutant, V5-tagged (human, UniProt P13637-3 1-1026, F309S). In words: co-IP.

B1: TOMM22, GFP-tagged (natural protein, UniProt Q9NS69 1-142, looked up)
chain: MAAAVAAAGAGEPQSPDELLPKGDAEKPEEELEEDDDEELDETLSERLWGLTEMFPERVRSAAGATFDLSLFVAQKMYRFSRAALWIGTTSFMILVLPVVFETEKLQMEQQQQLQQRQILLGPNTGLSGGMPGALPSLPGKI
Turning to B1, the “reduction of the interaction against WT ATP1A3” value was ~50%.
